Test results as given in the nanobody polyreactivity screen of Harvey et al. (2022).

Test: yeast display, Sf9 membrane polyspecificity reagent, FACS + sequencing; frameworks hold sequencing errors
In short: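 A synthetic nanobody library was expressed on Saccharomyces cerevisiae BJ5465 by galactose induction for 36–48 hours. The library was stained for 1 hour at 4 °C with 10% biotinylated, detergent-solubilized Sf9 membrane reagent and enriched with streptavidin microbeads before FACS. Low and high (top ~1%) gates were set on anti-HA fluorescence for expression and streptavidin fluorescence for reagent binding, and each polyreactivity label reflects the gate of origin.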

Row | Sequence | polyreactivity (PSR sort gate)
1 | QVQLVESWGGLVQAGGSLRLSCAASGGTFGNNDMGWYRQAPGKERELVAAIRSAGTTYYADSVKGRFTISRDNAKNTVYLQMNSLKPEDTAVYYCNADTTGYWSYGFQYYGEDYWGQGTQVTVSS | low polyreactivity
2 | QVQLVESGGGLVQAGGSLRLSCAASGSIFVRYAMGWYRQAPGKERELVASIRSRGDSTYYADSVKGRFTISRDNAKNTVYLQMNSLKPEDTAVYYCAVQRSYVGPRQYNYWGQGTQVTVSS | high polyreactivity
3 | QVQLVESGGGLVQAGGSLRLTCAASGFTFFYNAMGWYRQAPGKERELVAAISRGGGRTYYADSVKGRFTISRDNAKNTVYLQMNSLKPEDTAVYYCAKEYGGTRGRKLDYWGQGTQVTVSS | high polyreactivity
4 | QVQLVESGGGLVQAGGSLRLSCAASGRIFYSYAMGWYRQAPGKERELVAAINSGDRTNYADSVKGRFTISRDNAKNTVYLQMNSLKPEDTAVYYCATDDYPWRRHPWYAGYDSWGQGTQVTVSS | low polyreactivity
5 | QVQLVESGGGLVQAGGRLRLSCAASGYIFGWNAMGWYRQAPGKERELVAAISSGGNTKYADSVKGRFTISRDNAKNTVYLQMNSLKPEDTAVYYCNADFRVYIPHVPYFVDFDYWGQGTQVTVSS | low polyreactivity
6 | QVQLVESGGGLVQAGGRLLLSCAASGSTFDAYAMGWYRQAPGKERELVAAITNGGSTYYADSVKGRFTISRDNAKNTVYFQMNCLKPEDTAVYYCNAQHRTVWGIFGRFNYWGLGTQVTVSS | low polyreactivity
7 | QVQLVESGGGLVQAGGSLRLSCAASGSTFTTYAMGWYRQAPGKESELVAAITWSVGSTYYADSVMGRFTISRDNAKNTVYLQMNSLKPEDTAVYYCAADPTGGVGFDGYYWGQGTQVTVSS | low polyreactivity
8 | QVQLVESAGGLVQAGGSLRLSCAASGLILHINTMGWYRQAPGKERELVAAISWSGDSTYYADSVKGRFTISRDNAKNTVYLQMNSLKPDDTAVYYCTTDYGHTYLYGYDYWGQGTQVTVSS | high polyreactivity
9 | QVQLVESGGGLVQAGGSLRLSCAASGRIFYANAMGWYRQAPGKERELVAAISSGGSTYYADSVKGRFTISRDNAKNTVYLKMYSLKPEDTAVYYCAASTVGQTFSYYVDTYDYWGQGTQVTVSS | low polyreactivity
10 | QVQLVESGGGLVQAGGSLRLSCAASGSTFSRYAMGWYRQAPGKERELVAAITRSGGSTYYADSVKGRFTISRDNAKNTVYLQMNSLKPEDTAVYYCAASRGRGGYGFDYWGQGTQVTVSS | high polyreactivity
11 | QVQLVESGGGLVQAGGRLRLSCAASGSIFGRYAMGRYRQAPGKERELVAAITWSATSTYYADYVKGRFTISRDNAKNTVYLQMNSLKPEDTAVYYCAVRTPRARYTYGSWGQGTQVTVSS | high polyreactivity
12 | QVQLVESGGGLVQAGGSLRLSCAASGSIFSKYAMGWYRQAAGKERELVAGISCSGGSTYYADSVNGRFTISRDNAQITVYLQINSLKPEDTAVYYCAVGIPYRGRQGYYGYYSYDYWGQGTHVTVSS | high polyreactivity
13 | QVQLVESGGGLVQAGGSLRLSCAASGSTFAWYDMGWYRQAPGKEREFVAAIDYGGGSTYADSVKGRFTISRDNAKNTVYLQMNSLKPEDTAVYYCNADNWVYLYDYWGQGTQVTVSS | low polyreactivity
14 | QVQLVESGGGLVQAGGSLRLSCAASGSTFYGYAMGWYRQAPGKERELVAAISSGGRTKYADSVKGRFTISRDTAKNTVYLQMNSLKPEDTAVYYCYVSYLVYRWKFGWSMDYWGQGTQVTLSS | low polyreactivity
15 | QVQLVESGGGLVQAGGSLRLSCAASGSTLVGYVMGWYRQAPGKERELVATISRSGGSTYYADSVKGRFTISRDNAKNTVYLQMNSLKPEDTAVYYCATDLLNNVDYDYWGQGTQVTVSS | low polyreactivity
16 | QVQLVESGGGLVQAGGSLRLSCAASGIIFRANAMGWYRQAPGKERELDAAISGRGSSTTYADSVKGRFTISRDNAKNTVYLQINSLKPEDTAVYYCAARLPYNNQVPGYYWGQGTQVTGSS | high polyreactivity
17 | QVQLVESGGGLVQAGGSLRLSCAASGRTFANYAMGWYRQAPGKERELVATITWSDGSTYADSVKGRFTISRDNAKNTVYLQMNSLKPEDTAVYYCATRRYGKVFYPSQYTRYDYWGQGTQVTVSS | high polyreactivity
18 | QFQLVESGGGLVQAGGSLSLSCAASGSTFSFNARGSYRQAPGKERELVAAITSGGSTYYADSVKGRFTISRDNAKNTVYLQMNSLKPEDTAVYYCAAAWAYGFGTRRYYWGQGTQVTVSS | high polyreactivity
19 | QVQLVESGGGLVQAGGSLRLSCAASGFNFYLNAMGWYRQAPGKERELVAAISSSGGITYYADSVKGRFTISRDNAKNTVYLQMNSLKPEDTADYSCAAYWPKYRYEAERDYWGQGTQVTVSS | low polyreactivity
20 | QVQLVESGGGLVQAGGSLRLSCAASGGTFRVYAMGWYRQAPGKERELVAAITGRGGSTYYADSVKGRFTISRDNAKNTVYLQMNSLKPEETAVYYCAKDPVTTYYKYDYWGQGTQVTVSS | low polyreactivity
21 | QVQLVESGGGLVQAGGSLRLICAASGSTFGRNAMGWSRQAPGKERELVAAISSGGRTYYADSVKGRFTSSRDNAKHTVYVQLNSLKPEDSAVYYCARDDYGTLVKLYVRGFNYWGQGTQVTVSS | low polyreactivity
22 | QVQLVESGGVLVQAGGSLRLSCAASGSILHDYAMGWYRQAPGKERELVASINWSGGRTYYADSVKGRFTISRDNAKNTVYLQRNRLTPEDTAVYYCSADPSWLHVSHAPTFGLDYWGQGSQVTVSS | high polyreactivity

Row | Sequence | polyreactivity (PSR sort gate)
23 | QVQLVESGGGLVQAGGSLRLSCAASGRIFYSYAMGWYRQAPGKERELVATISRRGGSTYYADSVKGRFTISRDNAKNTVYLQMNSLKPEDTAVYYCNKGIPTRSVRSYDYWGQGTQVTVSS | high polyreactivity
24 | QDQLVESGGGLVQAGGSLRLSCAASGSTFRHYAMGWYRQAPGQESELVAAISSRGGRTYYADSVKGRFTISRDNAKNTVYFQMNSLKPEDTAVYYCAADRFRLYVGGWWYDYWGLGTQVTVSS | high polyreactivity
25 | QVQLVESGGGLVQAGGSLRLSCAASVYTFPSYVMGWYRQAPGKERELVAAISSGSRTYYADSVKGRFTISRDNAKNTVYLQMNSLKPEDTAVYYCNARGFPGKFGYWGPGTQVTVSS | high polyreactivity
26 | QVQLVESGGGLVQAGGSLRLSCAASGNIFGYYVMGWYRPAPGKERELVAGISSGDSTDYADSVKGRFTISRDNAKNTVYLQMNSLKPEDTAVYYCNADWNPTERWFYWYTPLGYDYWGQGTQVTVSS | low polyreactivity
27 | QVQLVESGGGLVQAGGSLRLSCAASGNTFTWYTIGWYRQAPGKERELVAVITSDGSKYYADSVKGRFTISRDNAKNTFYLQMNSLKPEVTAVYYCTVGGGTNYGYGYWYGFYYWGQGTQVTVYS | low polyreactivity
28 | QVQLVESGGGLVQAGGSLRLRCAASGFTFDLYAMGWYRQAPGKERELVAAISWSGGSTRYADSVKGRFTISRDNAKNTVYLQMNSLKPEDTAVYYCAKPVLVGLGSRYDYWGQGTQVTVSS | high polyreactivity
29 | QVQLVESGGGLVQAGGSLRLSCAAYGSIIHANAMGWYRQAPGKERELVAAITGDGSTYYADSVKGRFTISRDNAKNTVYLQMNSLKPEDTAVYYCNAEYYSTYDSWGQGTQVTVSS | low polyreactivity
30 | QVQHVESGGGLVQAGGSLRLSCAASGFTIYYYAMGWYRQAPGKERELVAAISTRDGNTYYADSVKGRFTMSRDNAKNTVYLQMNSLKPEDTAVDYCAADYFRYYPYDYWGQGTQVTVSS | low polyreactivity
31 | QVQLVESGGGLVQAGGSLRLSCAASGRIFRYYVMGWYRQAPGKEREFVASISGRGASTYYADSVKGRFTISRDNAKNTVYLQMNSLKPEDTAVYYCNADVWLLSYFPEYDYWGQGTQVTVSS | low polyreactivity
32 | QVQLVESGGGLVQAGGSLRLSCAASGSTFGWYAMGWYRQAPGKERELVAAISTSGNTYYADSVKGRFTISRDNAKNTVYLHMNRLKPEDTAVSYCAKYVNPDHDYWGQGTQVTVSS | low polyreactivity
33 | QVQLVESGGGLDQAGGSLRLSCAASGRTFNPYVLGWYRQAPGKERELVAVITSSGDSTYYADSVKGRFTISRDNAKNTVYLQMNSLKPEDTAVYYCNADYLYYDYDYWGQGTQVTVSS | high polyreactivity
34 | QVRLVESGGGLVQAGGSLRLSCAASGRIFYRYAIGWYRQAPGKERELVAAISSSGGSTYYADSVKGRFTISRDNAKNTVYLQMNSLKPEDTAVYYCAADAGSINSGYDYWGQGTQVTVSS | low polyreactivity
35 | QVQIVESGGGLVQAGGSLRLTCAASGYIFKYYAMGWYRQAPGKERELVAAITIGGNTNYADSVKGRFTISRDNAKNTVYLQMNSLKPEDTAVYYCATGGYYSAIVYGGYDYWGQGTQVTVSS | low polyreactivity
36 | QVQLVESGGGLVQAGGSLRLSCAASGSTFYIYTMGWYRQAPGKERELVATISWDGGNTYYADSVKGRFTISRDNAKNTVYLQMNSLKPEDTAVYYCARDSSIWSHGSWYDYWGQGTQVTVSS | low polyreactivity
37 | QVQLVEAGGGLVQAGGSLRLSCAASGGIFLPYAMGWYRQAPGKERELVAGITSVGSTYADSVKGRFTISRDNAKNTVYLQMNSLKPEDTAVYYCNADIYFVEYDYWGQGTQVTVSS | low polyreactivity
38 | QVQLVESGGGLVQAGGSLRLSCAASGSTFLSYAMGWYRQAPGHERELVAAISIAGSTYYADSVKGRFTISRANAKNTVYLQMHSLKPEDTAVDYCRRYYRIYDYWGQGTQVTVSS | low polyreactivity
39 | QVQLVESGGGLVQAGGSLRLSCAASGSTIPSNAMGWYRQAPGKERELVASITYSDGTTRYADSVKGRFTISRDNAKNTVYLLMNSLKPEDTAVYYCNAVYYREGMDYWGLGTQVTVSS | low polyreactivity
40 | QVQLVESGGGLVQAGGSLRLSCAASGYIFDIYAMGWYRQAPGKERELVAVITRSGGGTYYADSVKGRFTISRDNAKKTVYLQMNSLKPEDTAVYYCAAESYVYGGSDYDYWGQGTQVTVSS | low polyreactivity
41 | HVQLEETGRGLVQAGGSLRISCAASGRIFEYYAMGWYRQAPGKDRELVAAITSSTGSTSYADSVKGRFTISRDNEKNTVYLQMNSLKPEDTAVYYCAADVWFFSKLSRYDYWGQGTQVTVSS | low polyreactivity
42 | QVQLVESGAGLVQAGGSLRLSCAASGRIFAGYAMGWYRQAPGKEMELVATISSGGSTYYADSVKGRFTISRYNAKNTVYLQMNSLKPEVTAVYYCAADNWVNDGDYCGQGTQVTVSS | low polyreactivity
43 | QVQLVESGGGLVKAGGSLRLSCAASGYNFIVYTMGWYRQAPGKERELVAAISSGGITDYADSVKGRFTISRDNAKNTDYLQMNSLNPEDTAVYYWGQGTQVTVSS | low polyreactivity
